One assay addresses Met receptor (Homo sapiens, UniProt P08581, DEL964-1010). In words: Met receptor inhibition in serum-starved, rhuHGF-stimulated cells, immunoblot with infrared quantification. In kind it is cell-based. To be noted: H596 cells (Met exon 14 deletion), antibody 30 minutes, then 100 ng/ml rhuHGF; FIGS. 4A, 6. The procedure: (§1) To examine the prolonged signaling in H226, H596, H358, or Rat 1A-Met stable clones, the cells were rinsed with PBS then serum-starved in RPMI or DMEM media containing 0.5% BSA, 2 mM glutamine, and penicillin/streptomycin for one hour. rhuHGF or the agonistic anti-Met monoclonal antibody, 3D6 (Genentech), was added to the serum-free media for 10 minutes. The monolayer of cells was then rinsed with PBS and incubated with serum-free media until their extraction at the indicated times. Cells were then rinsed once with PBS, lysed with 1×SDS sample buffer containing 1×DTT (Invitrogen), sonicated briefly, and boiled for 5 minutes. […] Boiled samples were analyzed by SDS-PAGE and immunoblotted with P-Met (Y1230/Y1234/Y1235, BioSource), P-Met (Y1234/Y1235), Met (DL-21), P-MAPK (E10, Cell Signaling), P-MAPK (Cell Signaling), P-Akt (587F11, Cell Signaling), or Akt (Cell Signaling). […] Proteins transferred onto nitrocellulose membranes were detected by infrared scan using Odyssey (LiCor) according to the manufacturer's recommended western blotting instructions followed by quantification. […] After 72 hrs, cell viability was measured using the Celltiter-Glo Luminescent Cell Viability Assay (Promega). Stimulation indices were determined by dividing the average cell viability units of HGF-stimulated cultures by the average cell viability units of unstimulated cultures. […]
In general terms: In western blotting, separated proteins are transferred to a membrane and probed.

In another assay the test system is H596 cells. Briefly: Growth inhibition assay (Celltiter-Glo cell viability, 72 hrs, HGF stimulation). Type of assay: cell-based, human. To be noted: with or without 50 ng/ml rhuHGF, FIG. 4B. The procedure:
as §1

B1: OA-5D5: known anti-c-met inhibitor; antibody of intact light chain, heavy chain and N-terminally truncated heavy chain comprising an Fc portion (antibody, V domains shown)
VH: EVQLVESGGGLVQPGGSLRLSCAASGYTFTSYWLHWVRQAPGKGLEWVGMIDPSNSDTRFNPNFKDRFTISADTSKNTAYLQMNSLRAEDTAVYYCATYRSYVTPLDYWGQGTLVTVSS
VL: DIQMTQSPSSLSASVGDRVTITCKSSQSLLYTSSQKNYLAWYQQKPGKAPKLLIYWASTRESGVPSRFSGSGSGTDFTLTISSLQPEDFATYYCQQYYAYPWTFGQGTKVEIK
modifications: constant regions; truncated heavy chain Fc; Sequence is synthesized
notes: antibody of intact light chain, heavy chain and N-terminally truncated heavy chain comprising an Fc portion
For the molecule B1, in the assay with Met receptor, the MAPK phosphorylation result is reported as “decreased with the addition of anti-Met OA-5D5 in a dose-dependent manner” and the Met phosphorylation result is reported as “decreased with the addition of anti-Met OA-5D5 in a dose-dependent manner”. Besides, the “cell proliferation (cell viability)” value with H596 cells is “dose-dependent inhibition of cell proliferation in a ligand-dependent manner”.

The values are drawn from patent US8536118B2, “Methods and compositions for modulating hyperstabilized c-met” (Genentech, Inc., priority 2005, dated 2013).
